Test results from US6750028B1, “Anti-fibrotic agent assay” (Ethicon, Inc, priority 1996, dated 2004).

B1: IGFBP-2: Purified rat Insulin-like Growth Factor Binding Protein 2 (protein, UniProt P12843 35-304, looked up)
Insulin-like growth …: EVLFRCPPCTPERLAACGPPPDAPCAELVREPGCGCCSVCARQEGEACGVYIPRCAQTLRCYPNPGSELPLKALVTGAGTCEKRRVGATPQQVADSEDDHSEGGLVENHVDGTMNMLGGSSAGRKPPKSGMKELAVFREKVNEQHRQMGKGAKHLSLEEPKKLRPPPARTPCQQELDQVLERISTMRLPDDRGPLEHLYSLHIPNCDKHGLYNLKQCKMSLNGQRGECWCVNPNTGKPIQGAPTIRGDPECHLFYNEQQENDGAHAQRVQ
B2: IGFBP-1: Purified rat Insulin-like Growth Factor Binding Protein 1 (protein, UniProt P21743 26-272, looked up)
Insulin-like growth …: APQPWHCAPCTAERLELCPPVPASCPEISRPAGCGCCPTCALPLGAACGVATARCAQGLSCRALPGEPRPLHALTRGQGACVLEPAAPATSSLSGSQHEEAKAAVASEDELAESPEMTEEQLLDSFHLMAPSREDQPILWNAISTYSSMRAREITDLKKWKEPCQRELYKVLERLAAAQQKAGDEIYKFYLPNCNKNGFYHSKQCETSLDGEAGLCWCVYPWSGKKIPGSLETRGDPNCHQYFNVQN

Test system: TGF-β1 activation
Assay: Macrophage activation assay (IC-21 macrophages, LPS, fetal fibroblast conditioned media, ELISA)
Assay type: cell-based, mouse
Protocol: Cultured macrophages were lifted from the dish with 3 ml of PBS. The PBS was balanced with 15 ml of RPMI-1640 containing 10% FBS. The cells were counted and then seeded in 100 mm plates at 1×10^6 cells/dish. When the cultured macrophages reached approximately 70% confluency (2-3 days) they were washed with PBS and RPMI-1640 medium containing 5% FBS and 10 ng/ml LPS was applied (FIG. 1). After 24 h of activation with LPS the cells were washed gently with PBS. At this point conditioned medium from confluent fetal dermal fibroblasts was collected and 5 ml was distributed into each dish containing macrophages. The cells were incubated for an additional 24 h, the media were collected, spun down at 600×g for 10 min and stored at 4° C. before TGF-β1 evaluation by ELISA. Each condition was done in duplicate. The cells, washed with PBS, were harvested for total RNA extraction.
Fetal dermal fibroblasts were seeded in 100 mm dishes at 1×10^6 cell/dish. The cells were grown to confluency (2-3 days). The cultures were washed with PBS and fresh medium, either DMEM supplemented with 10% FBS or AIM-V medium (a serum free medium) for serum-free conditions, was applied for 24 h (FIG. 1). The medium was collected and combined in order to obtain a homogenous pool of latent TGF-β1. The collection of the medium was done just prior to application in the macrophage assay. […]

Molecule	effect on IGF-II-mediated inhibition of TGF-β1 activation, in words
B1	no effect on IGF-II action
B2	able to reverse this inhibition
